Source: patent US20130288983A1 (Amgen, published 2013)
Where a chain is given by its changes, count along the chain named. Numbers in names are those of the source.

T1: Activin A (Homo sapiens (Human), UniProt P08476 311-426)
T1 sequence: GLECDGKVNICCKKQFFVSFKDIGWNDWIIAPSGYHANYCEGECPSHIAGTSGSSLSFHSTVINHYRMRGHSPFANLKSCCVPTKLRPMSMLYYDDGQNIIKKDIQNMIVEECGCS

B1: ActRIIB-IgG1 Fc wild type, no linker (Fc fusion)
chain: SGRGEAETRECIYYNANWELERTNQSGLERCEGEQDKRLHCYASWRNSSGTIELVKKGCWLDDFNCYDRQECVATEENPQVYFCCCEGNFCNERFTHLPEAGGPEVTYEPPPTAPTAPELLGGPSVFLFPPKPKDILMISRTPEVTCVVVDVSHEDPEVKFNWYVGGVEVHNAKTKPREEQYNSTYRVVSVLTVLHQDWLNGKEYKCKVSNKALPAPIEKTISKAKGQPREPQVYTLPPSRDELTKNQVSLTCLVKGFYPSDIAVEWESNGQPENNYKTTPPVLDSDGSFFLYSKLTVDKSRWQQGNVFSCSVMHEALHNHYTQKSLSLSPGK
notes: Tested from conditioned media
B2: ActRIIB-IgG1 Fc E28A, no linker (Fc fusion)
chain: B1 chain with E10A
notes: Tested from conditioned media
B3: ActRIIB-IgG1 Fc R40A, no linker (Fc fusion)
chain: B1 chain with R22A
notes: Tested from conditioned media

target: T1, Activin A; experiment: Biacore SPR grade, COS stable conditioned media, 20 nM activin A
Procedure: Qualitative BIAcore® Assay. E28 and R40 were substituted respectively with other natural amino acids in fusions with IgG1 Fc as described above. Each vActRIIB-IgG1Fc sample from conditioned media was captured on goat anti-human IgG1 Fc antibody (Jackson Immuno Research, cat#109-005-098, lot 63550) coated CMS surface. 20 nM of Activin A was injected over captured sample surfaces using BIACore2000 (BIACore Life Sciences, Piscataway, N.J.). The resulting sensorgrams were normalized to the captured RL (500 RU) of vActRIIB-IgG1Fc variants. The normalized binding response (RU) for some variants are shown in Table 2, and is further described below. Relative binding affinity for activin was also determined by Biacore measurements using conditioned media obtained from mammalian cell expression. Activin A (20 nM) was used to capture soluble receptor polypeptide in the conditioned media and measured SPR signals were normalized. Normalized SPR of +++++: >60, ++++:40-60, +++:20-40, ++:10-20, +: 5-10, −: <5.

Normalized SPR [ru]	Binder
10 to 20	B1
10 to 20	B2
10 to 20	B3
